Results taken from the supplement of paper PMC7877785.
± gives the uncertainty stated by the source.

Assay: self-splicing fitness, log relative to wild type (ln ratio); higher = more splicing; Tetrahymena group I intron in knt gene, E. coli kanamycin selection, DiMSum; sequences stand for … in CUCUCU…GGAGGGAAAAGUUAUCAGGCAUGCACCUGGUAGCUAGUCUUUAAACCAAUAGAUUGCAUCGGUUUAAAAGGCAAGACCGUCAAAUUGCGGGAAAGGGGUCAACAGCCGUUCAGUACCAAGUCUCAGGGGAAACUUUGAGAUGGCCUUGCAAAGGGUAUGGUAAUAAGCUGACGGACAUGGUCCUAACCACGCAGCCAAGUCCUAAGUCAACAGAUCUUCUGUUGAUAUGGAUGCAGUUCACAGACUAAAUGUCGGUCGGGGAAGAUGUAUUCUUCUCAUAAGAUAUAGUCGGACCUCUCCUUAAUGGGAGCUAGCGGAUGAAGUGAUGCAACACUGGAGCCGCUGGGAACUAAUUUGUAUGCGAAAGUAUAUUGAUUAGUUUUGGAGUACUCGUGGUCG
Procedure, shortened: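 Fitness was computed with DiMSum as the error-weighted combination of replicate fold changes, kanamycin versus none, each normalised to wild type. The library randomised all eight intron nucleotides of the P1ex region, with the intron placed in the knt kanamycin-resistance gene on pET-22b(+) in E. coli BL21(DE3). Six replicate transformations were grown overnight at 37°C or 30°C on LB agar with or without 25 μg/mL kanamycin, plus 100 μg/mL carbenicillin, 50 μM IPTG and 0.2% rhamnose. Pooled colonies were amplicon-sequenced on an Illumina HiSeq 2500.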

GCGGAGCAAUAUUACGAGGU
self-splicing fitness (ln) (30 °C): -4.1 ± 0.46

UUCUAGCAAUAUUACGAUUC
self-splicing fitness (ln) (30 °C): -1.98 ± 0.34
self-splicing fitness (ln) (37 °C): -2.5 ± 0.49

GAAUAGCAAUAUUACGCAUA
self-splicing fitness (ln) (30 °C): -2.62 ± 0.29
self-splicing fitness (ln) (37 °C): -1.08 ± 0.17

CCGAAGCAAUAUUACGUGUG
self-splicing fitness (ln) (30 °C): -2.19 ± 0.059
self-splicing fitness (ln) (37 °C): -0.959 ± 0.062

GAUGAGCAAUAUUACGUGGU
self-splicing fitness (ln) (30 °C): -3.36 ± 0.37

GCUAAGCAAUAUUACGCCCC
self-splicing fitness (ln) (30 °C): -1.74 ± 0.28
self-splicing fitness (ln) (37 °C): -0.52 ± 0.21

UUGCAGCAAUAUUACGCCCU
self-splicing fitness (ln) (30 °C): 0.32 ± 0.46

UGGCAGCAAUAUUACGAAAC
self-splicing fitness (ln) (37 °C): -1.52 ± 0.32

CCGGAGCAAUAUUACGCACU
self-splicing fitness (ln) (37 °C): -2.69 ± 0.48

AUAAAGCAAUAUUACGUCCG
self-splicing fitness (ln) (30 °C): -0.335 ± 0.11
self-splicing fitness (ln) (37 °C): 0.106 ± 0.13

GAACAGCAAUAUUACGUGGC
self-splicing fitness (ln) (30 °C): -3.03 ± 0.17
self-splicing fitness (ln) (37 °C): -2.6 ± 0.18

UACAAGCAAUAUUACGGAUG
self-splicing fitness (ln) (30 °C): -1.16 ± 0.078
self-splicing fitness (ln) (37 °C): -0.694 ± 0.11

AAAAAGCAAUAUUACGUAGU
self-splicing fitness (ln) (30 °C): -2.1 ± 0.076
self-splicing fitness (ln) (37 °C): -1.69 ± 0.091

GUUUAGCAAUAUUACGUGCA
self-splicing fitness (ln) (30 °C): -0.885 ± 0.099
self-splicing fitness (ln) (37 °C): -0.958 ± 0.11

AUGCAGCAAUAUUACGAACG
self-splicing fitness (ln) (30 °C): -1.7 ± 0.16
self-splicing fitness (ln) (37 °C): -0.0769 ± 0.12

CGUAAGCAAUAUUACGCUCA
self-splicing fitness (ln) (30 °C): -1.2 ± 0.2
self-splicing fitness (ln) (37 °C): -0.106 ± 0.18

GCGUAGCAAUAUUACGUAAA
self-splicing fitness (ln) (30 °C): -0.977 ± 0.21
self-splicing fitness (ln) (37 °C): -1.1 ± 0.25

GAGCAGCAAUAUUACGCCUG
self-splicing fitness (ln) (30 °C): -2.2 ± 0.19
self-splicing fitness (ln) (37 °C): -2.32 ± 0.42

GCAAAGCAAUAUUACGAUAU
self-splicing fitness (ln) (30 °C): -1.41 ± 0.075
self-splicing fitness (ln) (37 °C): 0.42 ± 0.082

CGACAGCAAUAUUACGUUCC
self-splicing fitness (ln) (30 °C): -1.82 ± 0.11
self-splicing fitness (ln) (37 °C): -0.935 ± 0.14

GGAAAGCAAUAUUACGAUAG
self-splicing fitness (ln) (30 °C): -3.1 ± 0.34
self-splicing fitness (ln) (37 °C): -1.16 ± 0.2

UCUGAGCAAUAUUACGCAUC
self-splicing fitness (ln) (37 °C): -2.47 ± 0.49

CCGUAGCAAUAUUACGCCCA
self-splicing fitness (ln) (37 °C): -2.54 ± 0.48

CUCCAGCAAUAUUACGAUCU
self-splicing fitness (ln) (30 °C): -4.21 ± 0.27
self-splicing fitness (ln) (37 °C): -1.16 ± 0.12

AUCGAGCAAUAUUACGCGAG
self-splicing fitness (ln) (30 °C): -2.32 ± 0.2
self-splicing fitness (ln) (37 °C): -1.4 ± 0.14

ACCCAGCAAUAUUACGCGUC
self-splicing fitness (ln) (30 °C): -2.16 ± 0.088
self-splicing fitness (ln) (37 °C): -1.42 ± 0.11

CCCUAGCAAUAUUACGAAUA
self-splicing fitness (ln) (30 °C): -1.47 ± 0.3
self-splicing fitness (ln) (37 °C): -1.79 ± 0.39

GUCUAGCAAUAUUACGGAUG
self-splicing fitness (ln) (30 °C): -1.93 ± 0.2
self-splicing fitness (ln) (37 °C): 0.0916 ± 0.19

UACUAGCAAUAUUACGUCUA
self-splicing fitness (ln) (30 °C): -0.655 ± 0.12
self-splicing fitness (ln) (37 °C): -0.565 ± 0.11

UUCCAGCAAUAUUACGUCGG
self-splicing fitness (ln) (30 °C): -3.28 ± 0.23
self-splicing fitness (ln) (37 °C): -3.13 ± 0.4

AGCGAGCAAUAUUACGUGAG
self-splicing fitness (ln) (30 °C): -4.49 ± 0.27
self-splicing fitness (ln) (37 °C): -2.79 ± 0.19

AGGAAGCAAUAUUACGGUCC
self-splicing fitness (ln) (30 °C): -1.54 ± 0.23
self-splicing fitness (ln) (37 °C): -1.05 ± 0.4

GCGGAGCAAUAUUACGGUUG
self-splicing fitness (ln) (30 °C): -3.64 ± 0.2
self-splicing fitness (ln) (37 °C): -1.78 ± 0.18

CACCAGCAAUAUUACGUUUG
self-splicing fitness (ln) (30 °C): -0.595 ± 0.043
self-splicing fitness (ln) (37 °C): -0.00269 ± 0.064

UUCCAGCAAUAUUACGUGUC
self-splicing fitness (ln) (30 °C): -2.18 ± 0.086
self-splicing fitness (ln) (37 °C): -1.48 ± 0.098

ACGUAGCAAUAUUACGGAUG
self-splicing fitness (ln) (30 °C): -4.2 ± 0.24
self-splicing fitness (ln) (37 °C): -2.42 ± 0.21

CAGCAGCAAUAUUACGAGAG
self-splicing fitness (ln) (30 °C): -2.38 ± 0.083
self-splicing fitness (ln) (37 °C): -1.81 ± 0.089

AUCGAGCAAUAUUACGACGC
self-splicing fitness (ln) (30 °C): -1.28 ± 0.094
self-splicing fitness (ln) (37 °C): -0.674 ± 0.12

AAGAAGCAAUAUUACGGUCA
self-splicing fitness (ln) (30 °C): -0.625 ± 0.088
self-splicing fitness (ln) (37 °C): 0.197 ± 0.1

CCAUAGCAAUAUUACGACGU
self-splicing fitness (ln) (30 °C): -3.3 ± 0.35
self-splicing fitness (ln) (37 °C): -2.13 ± 0.23
